Consider one molecule from paper PMC4855144.

This assay has as its target GFP-N-WASP WH1-GBD. Put plainly: co-IP; GFP microbeads precipitate GFP-N-WASP and fragments ΔWA, WH1, WH1-GBD from HEK293T cell extracts; endogenous CRN7 detected with mAb K37-142-1; ratio of co-IP to IP.

GFP-N-WASP WH1-GBD, sequence (O00401 whole entry, the tested form may be a part): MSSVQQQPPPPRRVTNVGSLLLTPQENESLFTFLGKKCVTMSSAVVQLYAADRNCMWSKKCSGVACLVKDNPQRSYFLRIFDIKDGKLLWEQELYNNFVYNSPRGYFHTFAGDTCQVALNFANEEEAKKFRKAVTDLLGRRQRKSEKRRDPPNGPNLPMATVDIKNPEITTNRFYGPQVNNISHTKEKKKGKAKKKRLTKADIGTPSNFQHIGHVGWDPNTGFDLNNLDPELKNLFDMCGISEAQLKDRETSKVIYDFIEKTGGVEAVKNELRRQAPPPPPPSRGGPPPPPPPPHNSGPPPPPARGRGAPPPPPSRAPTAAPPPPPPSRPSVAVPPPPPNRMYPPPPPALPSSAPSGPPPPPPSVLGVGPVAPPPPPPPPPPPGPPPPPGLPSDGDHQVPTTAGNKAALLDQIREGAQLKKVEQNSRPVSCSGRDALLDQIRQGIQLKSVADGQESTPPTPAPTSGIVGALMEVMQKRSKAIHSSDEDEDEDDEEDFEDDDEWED

B1: endogenous CRN7 (Coronin7) of HEK293T cells (natural protein)
chain: MNRFRVSKFRHTEARPPRRESWISDIRAGTAPSCRNHIKSSCSLIAFNSDRPGVLGIVPLQGQGEDKRRVAHLGCHSDLVTDLDFSPFDDFLLATGSADRTVKLWRLPGPGQALPSAPGVVLGPEDLPVEVLQFHPTSDGILVSAAGTTVKVWDAAKQQPLTELAAHGDLVQSAVWSRDGALVGTACKDKQLRIFDPRTKPRASQSTQAHENSRDSRLAWMGTWEHLVSTGFNQMREREVKLWDTRFFSSALASLTLDTSLGCLVPLLDPDSGLLVLAGKGERQLYCYEVVPQQPALSPVTQCVLESVLRGAALVPRQALAVMSCEVLRVLQLSDTAIVPIGYHVPRKAVEFHEDLFPDTAGCVPATDPHSWWAGDNQQVQKVSLNPACRPHPSFTSCLVPPAEPLPDTAQPAVMETPVGDADASEGFSSPPSSLTSPSTPSSLGPSLSSTSGIGTSPSLRSLQSLLGPSSKFRHAQGTVLHRDSHITNLKGLNLTTPGESDGFCANKLRVAVPLLSSGGQVAVLELRKPGRLPDTALPTLQNGAAVTDLAWDPFDPHRLAVAGEDARIRLWRVPAEGLEEVLTTPETVLTGHTEKICSLRFHPLAANVLASSSYDLTVRIWDLQAGADRLKLQGHQDQIFSLAWSPDGQQLATVCKDGRVRVYRPRSGPEPLQEGPGPKGGRGARIVWVCDGRCLLVSGFDSQSERQLLLYEAEALAGGPLAVLGLDVAPSTLLPSYDPDTGLVLLTGKGDTRVFLYELLPESPFFLECNSFTSPDPHKGLVLLPKTECDVREVELMRCLRLRQSSLEPVAFRLPRVRKEFFQDDVFPDTAVIWEPVLSAEAWLQGANGQPWLLSLQPPDMSPVSQAPREAPARRAPSSAQYLEEKSDQQKKEELLNAMVAKLGNREDPLPQDSFEGVDEDEWD
As to B1, the fold binding (co-IP to IP ratio) over WH1 alone came to 4 fold.
